This is an account of results in the supplement of paper PMC9170038.

For this data set, the system named is MS2 coat protein. Description: apparent KD of MS2 coat protein; designed switch direction (-1 OFF switch, 1 ON switch): 1; higher = weaker reporter binding. Summed up: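 Each step of the titration lasted 0.8–1.5 h at the lowest concentration and 10–20 min at the highest. The protein, SNAP-549-labelled MS2 coat protein, went from 0.7 or 1.5 nM doubling to 3 µM over RNA switches transcribed on Illumina chips by stalled E. coli RNA polymerase. Normalised cluster fluorescence was curve-fitted, and the per-design median over clusters is given as apparent KD.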

[1] abbreviates: input ligand: microRNA oligo, concentration not stated.
Setting [2] is: Eterna round: R95, input ligand: FMN 200 uM.
Where [3] appears, read: Eterna round: R95, input ligand: microRNA oligo, concentration not stated.
The mark [4] stands for this setting: Eterna round: R95, input ligand: none.

In the case of “UUCCCAGCGGGAGGAUAUGGUGCCUUGUUGGUGCUAGAAGGUCCAACAUGAGGAUCACCCAUGUGGGAGUGGUCGAGAGACCUC [SS NG10LRO10] (Eterna round: R96, puzzle: Same State NG 1)”, the “apparent KD of MS2 coat protein” value by setting is: (input ligand: FMN 200 uM) 0.307 µM; under setting [1], 0.238 µM; (input ligand: none) 0.427 µM.

In the case of “UUCGAGUUGCAAGGAUAUCUUAUUUAGAUUUUAAGAGAAGGUGCUUCACAGCUACAUGAGGAUCACCCAUGUCUUUCUUCUUAU [JR_SSNG1_Sub064] (Eterna round: R96, puzzle: Same State NG 1)”, the “apparent KD of MS2 coat protein” value under setting [1] was 0.0226 µM.

“UUCUGACAUGAGGAUCACCCAUGUGAGACAUAUGGAGAAUCUCAGGAUAUCCUGAGGAUCACCCAGGAGAAGGGAGAUCCGACC (Eterna round: R96, puzzle: Same State NG 3)”: the “apparent KD of MS2 coat protein” value amounted to 0.032 µM (input ligand: FMN 200 uM), 0.0437 µM under setting [1] and 0.0457 µM (input ligand: none).

In the case of “UUGAAGAAUUAAGGAUAUCGAGUACAUAUGUUAAACAUGAGGAUCACCCAUGUGGGUUGCGGUAUCGAGAAGGUAAAUUACAAG [JL SSNG2 1.42] (Eterna round: R96, puzzle: Same State NG 2)”, the “apparent KD of MS2 coat protein” value reads like this: (input ligand: FMN 200 uM) 0.0302 µM; under setting [1], 0.0256 µM; (input ligand: none) 0.0365 µM.

On to “UUGAAGAAUUAAGGAUAUCGAGUCAAGAUGUUAAACAUGAGGAUCACCCAUGUGGGUUGCGGUAUCGAGAAGGUAAAUAAGAAG [Mat - Same State NG 2 - JL mod - D54] (Eterna round: R96, puzzle: Same State NG 2)”, for which the “apparent KD of MS2 coat protein” value (input ligand: FMN 200 uM) is 0.0443 µM, the “apparent KD of MS2 coat protein” value under setting [1] came out at 0.0296 µM and the “apparent KD of MS2 coat protein” value (input ligand: none) was 0.0448 µM.

With “UUGAAGAAUUAAGGAUAUCGAGUCAAGAUGUUAAACAUGAGGAUCACCCAUGUGGGUUGCGGUAUCGAGAAGGUAAAUUACAAG [JL SSNG2 1.41] (Eterna round: R96, puzzle: Same State NG 2)”, the “apparent KD of MS2 coat protein” value (input ligand: FMN 200 uM) was 0.0348 µM, the “apparent KD of MS2 coat protein” value under setting [1] was 0.0269 µM and the “apparent KD of MS2 coat protein” value (input ligand: none) is 0.0349 µM.

For the sequence “UUGAAGAAUUAAGGAUAUCGAGUCGUCUAAUUAAACAUGAGGAUCACCCAUGUGGGUUGCGGUAUCGAGAAGGUAAAUUACUAA [JL JR Sub099 mod 1] (Eterna round: R96, puzzle: Same State NG 2)”, the “apparent KD of MS2 coat protein” value (input ligand: FMN 200 uM) came out at 0.0143 µM, the “apparent KD of MS2 coat protein” value under setting [1] came out at 0.0206 µM and the “apparent KD of MS2 coat protein” value (input ligand: none) was 0.0322 µM.

For “UUGAAGAAUUAAGGAUAUCGAGUCGUCUAAUUAAACAUGAGGAUCACCCAUGUGGGUUGUGGUAUCGAGAAGGUAAAUUACUAA [JR_SSNG2_Sub099] (Eterna round: R96, puzzle: Same State NG 2)”, the “apparent KD of MS2 coat protein” value is, setting by setting: (input ligand: FMN 200 uM) 0.0744 µM; under setting [1], 0.0653 µM; (input ligand: none) 0.0951 µM.

For “UUGAAGAAUUAAGGAUAUUGAAUACAUAUGUUUAACAUGAGGAUCACCCAUGUGGGUUGCGGUGUCGAGAAGGUAAAUUAAUAG [Mat - same State NG 2 - JL mod - D94] (Eterna round: R96, puzzle: Same State NG 2)”, the “apparent KD of MS2 coat protein” value worked out at 0.221 µM (input ligand: FMN 200 uM), 0.191 µM under setting [1] and 0.291 µM (input ligand: none).

For the sequence “UUGAAGAAUUAAGGAUAUUGAUUACAUAUGUAUAACAUGAGGAUCACCCAUGUGGGUUGCGGUAUCGAGAAGGUAAAUUACUAG [Mat - same State NG 2 - JL mod - D75] (Eterna round: R96, puzzle: Same State NG 2)”, the “apparent KD of MS2 coat protein” value was found to be 0.145 µM (input ligand: FMN 200 uM), 0.0985 µM under setting [1] and 0.0982 µM (input ligand: none).

“UUGAGGUGUCAAGGAUAUGCUACCGUUUCGGUAGCAGAAGGUGAUCACAUGAGGAUCACCCAUGUAUGCAUGCGUGAGCGUGCU [JL SSNG1 3.61] (Eterna round: R96, puzzle: Same State NG 1)”: under setting [1], the “apparent KD of MS2 coat protein” value was 0.0234 µM.

Turning to “UUGAUGAAUUAAGGAUAUCGAGUCGUCUAAUUAAACAUGAGGAUCACCCAUGUGGGUUGUGGUAUCGAGAAGGUAAAUUACUUA [JR_SSNG2_Sub098] (Eterna round: R96, puzzle: Same State NG 2)”, the “apparent KD of MS2 coat protein” value runs as follows: (input ligand: FMN 200 uM) 0.0662 µM; under setting [1], 0.0675 µM; (input ligand: none) 0.0926 µM.

For the sequence “UUGUUUGGUAAAAUACAUGAGGAUCACCCAUGUUAUGGUGCAGAGGAUAUGCAUGUUUGAUUGAAGCAGAAGGCUGUAAGUUGU [JR_SSNG3_Sub036] (Eterna round: R96, puzzle: Same State NG 3)”, the “apparent KD of MS2 coat protein” value runs as follows: (input ligand: FMN 200 uM) 0.0357 µM; under setting [1], 0.0355 µM; (input ligand: none) 0.0437 µM.

As to “UUGUUUUGAAAUUUACAUGAGGAUCACCCAUGUCGUGAGACAGAGGAUAUACAGGAAUGUAGGUAGUAGAAGGCUGUUUUGUGU [JR_SSNG3_Sub100] (Eterna round: R96, puzzle: Same State NG 3)”, the “apparent KD of MS2 coat protein” value by setting is: (input ligand: FMN 200 uM) 0.0495 µM; under setting [1], 0.0976 µM; (input ligand: none) 0.123 µM.

On to “UUGUUUUGUAAUUAACAUGAGGAUCACCCAUGUCUUGGCUCAGAGGAUAUACAUGUUUGUUUGUAGUAGAAGGCUGUUUGUUGU [JR_SSNG3_Sub095] (Eterna round: R96, puzzle: Same State NG 3)”, for which the “apparent KD of MS2 coat protein” value came out at 0.0947 µM (input ligand: FMN 200 uM), 0.107 µM under setting [1] and 0.131 µM (input ligand: none).

With “UUUAAACAUGAGGAUCACCCAUGUUUUUUCAUGGGAGGAUAUCUAAGUUAAUUAUAUUAAGGAGAAGGCCUAUUUU [× ×•×ª×• ×ž×“×™× ×” × ×—×ª-05] (puzzle: Same State 1)”, the “apparent KD of MS2 coat protein” value came to 0.111 µM under setting [2], 0.0488 µM under setting [3] and 0.0531 µM under setting [4].

As for “UUUAAACAUGAGGAUCACCCAUGUUUUUUCAUGGGAGGAUAUCUGAGUUAAUUAUAUUAAGGAGAAGGCCUAUUUU [× ×•×ª×• ×ž×“×™× ×” × ×—×ª-01] (puzzle: Same State 1)”, the “apparent KD of MS2 coat protein” value turned out to be 0.102 µM under setting [2], 0.0386 µM under setting [3] and 0.0759 µM under setting [4].

Take “UUUAAACAUGAGGAUCACCCAUGUUUUUUUAUGGGAGGAUAUCUAAGUUAAUUAUAUUAAGGAGAAGGCCUAUUUU (Eterna round: R96, puzzle: Same State 1)”: the “apparent KD of MS2 coat protein” value is, setting by setting: (input ligand: FMN 200 uM) 0.0281 µM; under setting [1], 0.136 µM; (input ligand: none) 0.145 µM.

“UUUAAACAUGAGGAUCACCCAUGUUUUUUUAUGGGAGGAUAUCUAAGUUAAUUAUAUUAAGGAGAAGGCCUAUUUU [× ×•×ª×• ×ž×“×™× ×” × ×—×ª-04] (puzzle: Same State 1)”: the “apparent KD of MS2 coat protein” value under setting [3] stood at 0.124 µM.

Consider “UUUAGAUUCAGAGGAUAUUGAUGUUGUAAGUAACAAGAAGGCUGAAUGGUUAGAAUUGUUUAUUAACAUGAGGAUCACCCAUGU [JR_SSNG1_Sub009] (Eterna round: R96, puzzle: Same State NG 1)”, for which the “apparent KD of MS2 coat protein” value stood at 0.017 µM (input ligand: FMN 200 uM), 0.0171 µM under setting [1] and 0.0208 µM (input ligand: none).

Take “UUUAGCGUUACAGGAUAUGGUGAGGAUCACCCACUAGAAGGGUAAACAUGUGCGUCGGACAUGAGGAUCACCCAUGUAGGGCGU (Eterna round: R96, puzzle: Same State NG 1)”: the “apparent KD of MS2 coat protein” value (input ligand: FMN 200 uM) came to 0.0165 µM, the “apparent KD of MS2 coat protein” value under setting [1] came to 0.0222 µM and the “apparent KD of MS2 coat protein” value (input ligand: none) was 0.0352 µM.
